From patent US20120309934A1 (GWANGJU INSTITUTE OF SCIENCE AND TECHNOLOGY, published 2012)

Columns and labels:
BSA = target: T1, BSA (UniProt P02769 25-607); assay: phage ELISA, absorbance at 450 nm
T1 construct: Control protein in the input-phage ELISA; also called bovine serum albumin

[1] = target: T2, VEGF121 (human vascular endothelial growth factor) (human, UniProt P15692-9 27-147); assay: phage ELISA, absorbance at 450 nm
T2 construct: Immobilised on a CM5 chip by EDC/NHS for SPR and coated on plates for phage ELISA; also called VEGF-Trx cut with thrombin
T2 sequence (looked up): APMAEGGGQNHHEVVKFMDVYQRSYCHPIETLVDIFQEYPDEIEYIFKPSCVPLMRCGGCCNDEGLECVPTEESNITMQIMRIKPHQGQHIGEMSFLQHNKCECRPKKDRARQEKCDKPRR

Human serum albumin = target: T3, Human serum albumin (human, UniProt P02768 25-609); assay: phage ELISA, absorbance at 450 nm
T3 construct: Bought protein; also called HSA; HAS
T3 sequence (P02768 25-609 limits assumed): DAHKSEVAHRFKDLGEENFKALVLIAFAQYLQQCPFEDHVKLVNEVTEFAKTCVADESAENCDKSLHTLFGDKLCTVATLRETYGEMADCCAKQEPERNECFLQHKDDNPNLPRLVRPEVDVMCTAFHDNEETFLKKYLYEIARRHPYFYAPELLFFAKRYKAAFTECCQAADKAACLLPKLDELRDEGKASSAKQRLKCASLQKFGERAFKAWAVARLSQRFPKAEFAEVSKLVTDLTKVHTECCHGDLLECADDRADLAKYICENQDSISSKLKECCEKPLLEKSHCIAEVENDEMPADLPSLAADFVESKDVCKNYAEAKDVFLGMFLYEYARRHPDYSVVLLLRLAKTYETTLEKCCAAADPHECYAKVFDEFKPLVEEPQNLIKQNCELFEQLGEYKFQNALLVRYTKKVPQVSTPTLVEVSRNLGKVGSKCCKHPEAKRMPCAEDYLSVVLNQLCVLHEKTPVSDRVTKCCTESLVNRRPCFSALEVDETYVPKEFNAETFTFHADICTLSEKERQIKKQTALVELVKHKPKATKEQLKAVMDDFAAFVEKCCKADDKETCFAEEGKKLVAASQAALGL

Streptavidin = target: T4, Streptavidin (UniProt P22629 37-163, limits assumed); assay: phage ELISA, absorbance at 450 nm
T4 construct: Control protein in the input-phage ELISA; also called straptavidin
T4 sequence (P22629 37-163 limits assumed): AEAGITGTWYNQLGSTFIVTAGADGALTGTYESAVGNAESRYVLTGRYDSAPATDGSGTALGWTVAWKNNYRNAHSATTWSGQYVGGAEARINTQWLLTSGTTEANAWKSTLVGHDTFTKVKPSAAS

STAT3 protein [2] = target: T5, STAT3 protein (UniProt P40763 1-770, limits assumed); assay: phage ELISA of single clones on STAT3 against streptavidin
T5 sequence (P40763 whole entry): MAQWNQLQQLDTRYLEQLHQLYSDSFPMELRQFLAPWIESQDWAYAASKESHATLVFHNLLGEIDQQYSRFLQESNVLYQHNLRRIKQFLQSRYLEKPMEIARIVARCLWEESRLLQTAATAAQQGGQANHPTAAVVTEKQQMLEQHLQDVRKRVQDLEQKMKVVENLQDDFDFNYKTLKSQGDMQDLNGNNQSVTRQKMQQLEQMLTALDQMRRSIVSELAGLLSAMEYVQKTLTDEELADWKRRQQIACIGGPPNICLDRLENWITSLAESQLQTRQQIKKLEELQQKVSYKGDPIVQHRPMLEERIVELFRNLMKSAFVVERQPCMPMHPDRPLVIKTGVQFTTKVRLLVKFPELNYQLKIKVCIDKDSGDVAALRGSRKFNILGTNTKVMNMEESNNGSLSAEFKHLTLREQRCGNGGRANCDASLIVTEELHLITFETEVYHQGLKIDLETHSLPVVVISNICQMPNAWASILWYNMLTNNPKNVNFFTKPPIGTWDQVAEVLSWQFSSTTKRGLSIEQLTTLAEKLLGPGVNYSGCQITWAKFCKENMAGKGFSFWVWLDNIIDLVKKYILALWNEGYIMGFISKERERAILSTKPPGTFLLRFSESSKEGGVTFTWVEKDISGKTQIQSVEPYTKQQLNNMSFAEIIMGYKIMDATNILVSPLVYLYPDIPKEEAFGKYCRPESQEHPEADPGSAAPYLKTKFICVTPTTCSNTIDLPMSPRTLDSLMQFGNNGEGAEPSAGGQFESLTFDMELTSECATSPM
Method: STAT3 (10 μg/ml), BSA (10 μg/ml) and streptavidin (10 μg/ml) each was added to 30 wells (50 μl per well) in a 96-well ELISA plate and then kept to stand at 4° C. overnight. Next day, all wells were washed with 0.1% PBST three times, and blocked at room temperature for 2 hrs using 2% skim milk diluted with PBS. Then, the solution was removed and the plate was washed with 0.1% PBST three times. Phage peptide solution (100 μl) amplified from each clone was aliquoted to STAT3-bound wells and streptavidin protein-bound wells and kept to stand at 27° C. for 1.5 hrs. After washing with 0.1% PBST 10 times, HRP-conjugated anti-M13 antibodies (1:1,000 dilution; GE Healthcare) were added to each well and incubated at 27° C. for 1 hr. After washing with 0.1% PBST 5 times, 100 μl TMB was divided into each well to induce colorimetric reaction, followed by stopping the reaction adding 100 μl of 1 M HCl. The absorbance was measured at 450 nm to select phages which had the absorbance above 20-fold higher than BSA. XL1 cells were infected with these phages and spread in plate to produce 100-200 of plaques. […]
The phages recovered from the 4th biopanning step having the highest O/I ratio in each library were isolated as plaques. […] The DNA 10 sequencing was performed for 6 clones showing the absorbance value above 2-fold higher than streptavidin. […]

STAT3 protein [3] = target: T5, STAT3 protein; assay: SPR (Biacore X), STAT3 (4000 RU) on CM5 chip, peptide at 2, 5 and 7.5 µM
Method: The peptide sequences were identified by DNA sequencing. Two peptides were synthesized (BPB1: QAYYIP […] LWGPEF; BPB2: HGFQWP […] AYQFLK).
The affinity of the bipodal-peptide binder (BPB1: QAYYIP […] LWGPEF) was measured using SPR (Biacore X). The STAT3 protein (4000 RU) was fixed onto the CM5 chip. The concentrations of 2 μM, 5 μM and 7.5 μM the bipodal-peptide binder were used.

T1 sequence (P02769 25-607 limits assumed): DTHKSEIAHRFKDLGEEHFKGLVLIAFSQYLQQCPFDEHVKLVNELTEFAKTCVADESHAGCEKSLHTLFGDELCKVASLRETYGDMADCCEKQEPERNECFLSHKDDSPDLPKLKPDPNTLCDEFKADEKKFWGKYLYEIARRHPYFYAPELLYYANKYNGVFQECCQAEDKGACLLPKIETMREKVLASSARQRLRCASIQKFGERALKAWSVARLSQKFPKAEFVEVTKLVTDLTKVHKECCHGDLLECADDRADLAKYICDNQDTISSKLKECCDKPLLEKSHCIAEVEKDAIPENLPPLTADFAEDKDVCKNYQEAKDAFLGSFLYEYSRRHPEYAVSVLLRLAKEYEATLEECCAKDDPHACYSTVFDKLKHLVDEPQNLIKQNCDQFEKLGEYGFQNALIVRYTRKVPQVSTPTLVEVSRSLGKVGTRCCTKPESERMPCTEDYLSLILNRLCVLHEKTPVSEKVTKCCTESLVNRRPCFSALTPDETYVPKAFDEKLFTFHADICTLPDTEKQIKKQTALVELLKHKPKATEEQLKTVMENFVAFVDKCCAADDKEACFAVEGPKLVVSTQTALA

**Q.** Does QAYYIPGSWTWENGKWTWKGLWGPEF (also called BPB1; Peptidel) [STAT3-specific bipodal-peptide binder Peptide 1] bind (BSA)?
**A.** no binding

**Q.** Does QAYYIPGSWTWENGKWTWKGLWGPEF (also called BPB1; Peptidel) [STAT3-specific bipodal-peptide binder Peptide 1] bind [1]?
**A.** no binding

**Q.** Does QAYYIPGSWTWENGKWTWKGLWGPEF (also called BPB1; Peptidel) [STAT3-specific bipodal-peptide binder Peptide 1] bind (Human serum albumin)?
**A.** no binding

**Q.** Does QAYYIPGSWTWENGKWTWKGLWGPEF (also called BPB1; Peptidel) [STAT3-specific bipodal-peptide binder Peptide 1] bind (Streptavidin)?
**A.** no binding

**Q.** And the “fold absorbance over streptavidin” value (STAT3 protein [2])?
**A.** > 2 fold

**Q.** What about the Kd (STAT3 protein [3]) of the same binder?
**A.** ~1700 nM
